Reference: US20240075096A1, “ANTIMICROBIAL PEPTIDE LIQUID COMPOSITION AND FORMULATION THEREOF” (priority 2021, published 2024)
Converted amounts (≈) assume the structure as drawn.

Experiments:
[1] = system: Methicillin-resistant coagulase-negative Staphylococcus (MRSCNS) clinical isolates; test: In vitro bacteriostatic and bactericidal tests (MIC, MBC); type: cell-based; details: MRSCNS clinical strains
[2] = system: Methicillin-sensitive Staphylococcus aureus (MSSA) clinical isolates; test: as above; type: cell-based; details: MSSA clinical strains
[3] = system: Staphylococcus aureus ATCC29213; test: as above; type: cell-based; details: standard strain ATCC29213
[4] = system: Methicillin-sensitive coagulase-negative Staphylococcus (MSSCNS) clinical isolates; test: as above; type: cell-based; details: MSSCNS clinical strains
[5] = system: methicillin-resistant Staphylococcus aureus (MRSA) clinical isolates; test: as above; type: cell-based; details: MRSA clinical strains
[6] = Stability investigation of antimicrobial peptide compositions (trait, related substances and content by HPLC); type: physicochemical
[7] = 4° C., 0 days, peptide 2‰, stabilizer 1% (Table 2)
[8] = 4° C., 6 months, peptide 2‰, stabilizer 1% (Table 2)
[9] = 4° C., 12 months, peptide 2‰, stabilizer 1% (Table 2)
[10] = 4° C., 24 months, peptide 2‰, stabilizer 1% (Table 2)
[11] = 4° C., 36 months, peptide 2‰, stabilizer 1% (Table 2)
[12] = 25° C., 0 days, different mannitol systems (Table 3)
[13] = 25° C., 0 days, peptide 2‰, stabilizer 1% (Table 1)
[14] = 25° C., 1 month, peptide 2‰, stabilizer 1% (Table 1)
[15] = 25° C., 3 months, different mannitol systems (Table 3)
[16] = 25° C., 3 months, peptide 2‰, stabilizer 1% (Table 1)
[17] = 25° C., 6 months, different mannitol systems (Table 3)
[18] = 25° C., 6 months, peptide 2‰, stabilizer 1% (Table 1)

CN[C@H](CC(C)C)C(=O)N[C@H]1C(=O)N[C@@H](CC(N)=O)C(=O)N[C@H]2C(=O)N[C@H]3C(=O)N[C@H](C(=O)N[C@H](C(=O)O)c4cc(O)cc(O)c4-c4cc3ccc4O)[C@H](O)c3ccc(c(Cl)c3)Oc3cc2cc(c3O[C@@H]2O[C@H](CO)[C@@H](O)[C@H](O)[C@H]2O[C@H]2C[C@](C)(N)[C@H](O)[C@H](C)O2)Oc2ccc(cc2Cl)[C@H]1O [Vancomycin, vancomycin]
MIC Concentration Range [1]: 0.5 to 4 µg/mL | MIC Concentration Range [2]: 0.5 to 4 µg/mL | MBC Concentration Range [3]: 4 µg/mL (≈ 2.76 µM) | MIC Concentration Range [3]: 1 µg/mL (≈ 0.69 µM) | MIC Concentration Range [4]: 0.5 to 4 µg/mL | MIC Concentration Range [5]: 0.5 to 4 µg/mL

KWKSFLKTFKSAAKTVLHTALKAISS [antimicrobial peptide, tested alone as aqueous solution without stabilizer]
Content [6, 7]: 99.87% | Largest Single Impurity (Related Substance) [6, 7]: 0.19% | Total Impurities (Related Substance) [6, 7]: 0.32% | Trait [6, 7]: colorless clear liquid | Content [6, 8]: 97.51% | Largest Single Impurity (Related Substance) [6, 8]: 0.27% | Total Impurities (Related Substance) [6, 8]: 0.58% | Trait [6, 8]: colorless transparent | Content [6, 9]: 94.51% | Largest Single Impurity (Related Substance) [6, 9]: 0.32% | Total Impurities (Related Substance) [6, 9]: 0.68% | Trait [6, 9]: colorless transparent | Content [6, 10]: 85.57% | Largest Single Impurity (Related Substance) [6, 10]: 0.72% | Total Impurities (Related Substance) [6, 10]: 2.01% | Trait [6, 10]: colorless transparent | Content [6, 11]: 76.55% | Largest Single Impurity (Related Substance) [6, 11]: 0.96% | Total Impurities (Related Substance) [6, 11]: 3.02% | Trait [6, 11]: colorless transparent | Content [6, 12]: 100.12% | Largest Single Impurity (Related Substance) [6, 12]: 0.16% | Total Impurities (Related Substance) [6, 12]: 0.30% | Trait [6, 12]: colorless | Content [6, 13]: 99.87% | Largest Single Impurity (Related Substance) [6, 13]: 0.19% | Total Impurities (Related Substance) [6, 13]: 0.32% | Trait [6, 13]: colorless clear liquid | Content [6, 14]: 98.51% | Largest Single Impurity (Related Substance) [6, 14]: 0.25% | Total Impurities (Related Substance) [6, 14]: 0.53% | Trait [6, 14]: colorless transparent | Content [6, 15]: 98.42% | Largest Single Impurity (Related Substance) [6, 15]: 0.26% | Total Impurities (Related Substance) [6, 15]: 0.55% | Trait [6, 15]: colorless | Content [6, 16]: 88.57% | Largest Single Impurity (Related Substance) [6, 16]: 0.68% | Total Impurities (Related Substance) [6, 16]: 1.96% | Trait [6, 16]: colorless transparent | Content [6, 17]: 87.67% | Largest Single Impurity (Related Substance) [6, 17]: 0.85% | Total Impurities (Related Substance) [6, 17]: 1.99% | Trait [6, 17]: colorless | Content [6, 18]: 78.88% | Largest Single Impurity (Related Substance) [6, 18]: 0.98% | Total Impurities (Related Substance) [6, 18]: 3.16% | Trait [6, 18]: colorless transparent
